Data from patent US20240299561A1, “HISTIDINE-SELECTIVE POLYMER REAGENTS” (Nektar Therapeutics, priority 2021, published 2024).
“And” between values parts separate entries of the source, which are not always exact repeats. Identical values can stand only once.

What was measured:
[1] = Hydrolytic stability of PEG conjugates with α-CBZ-histidine in PBS buffer, pH 7.4, 37° C. (HPLC)
Experimental: The reaction mixture was incubated at 37° C. and periodically analyzed by HPLC.

[2] = Reaction of histidine-linked conjugates with hydroxylamine (release of α-CBZ-His); details: pH 7.3, 25° C., at approximately 42 hours
Source text: FIGS. 14A and 14B provide further evidence of the histidine-selectivity of exemplary polymer reagents provided herein, as illustrated by reaction of their corresponding histidine-linked conjugates with hydroxylamine. The data described below is representative of an indirect method for evaluating covalent attachment of a polymer reagent as provided herein with a histidine residue of an amino acid, peptide, polypeptide or other active histidine containing molecule, by displacement of the histidine-attached molecule resulting from reaction of the histidine-linked polymer conjugate with hydroxylamine.
More particularly, FIG. 14A is a plot illustrating reaction of a histidine conjugate prepared by reaction of Reagent 1 with model compound, α-CBZ-His, with hydroxylamine at pH 7.4, 25° C. […] Histidine conjugates such as the illustrative conjugates tested, when treated with hydroxylamine, undergo a reverse reaction such that the unconjugated histidine compound is released. […] By approximately 22 hours, 100% of the conjugate has disappeared with release of α-CBZ-His.

Molecule: COCCOCCOCCOCCOCCOCCOCCOCCOCCOCCOCCOCCOCCOCCOCCOCCOCCOCCOCCOCCOCCOCCOCCOCCOCCOCCOCCOCCOCCOCCOCCOCCOCCOCCOCCOCCOCCOCCOCCOCCOCCOCCOCCOCCOCCOCCOCCOCCOCCOCCOCCOCCOCCOCCOCCOCCOCCOCCOCCOCCOCCOCCOCCOCCOCCOCCOCCOCCOCCOCCOCCOCCOCCOCCOCCOCCOCCOCCOCCOCCOCCOCCOCCOCCOCCOCCOCCOCCOCCOCCOCCOCCOCCOCCOCCOCCOCCOCCOCCOCCOCCOCCOCCOCCOCCOCCOCCOCCOCCOCCOCCOCCOCCOCCN(C)C(=O)n1cnc(C[C@@H](NC(=O)OCc2ccccc2)C(=O)O)c1 [Conjugate 10, mPEG-N(CH3)—CO-α-CBZ-Histidine, 5 kDa]
- degree of hydrolytic stability relative to the other conjugates tested [1]: highest degree of hydrolytic stability
- % Hydrolysis at day 10 [1]: 1.8% and 1.9%

Molecule: mPEG-N(CH2CF3)—CO-α-CBZ-Histidine, 5 kDa [Conjugate 14]
- degree of hydrolytic stability relative to the other conjugates tested [1]: moderate degree of hydrolytic stability

Molecule: mPEG-Piperazine-CO— α-CBZ-Histidine, 5 kDa [Conjugate 11]
- percent of intact conjugate remaining [2]: 4%
- degree of hydrolytic stability relative to the other conjugates tested [1]: moderate degree of hydrolytic stability
- % Hydrolysis at day 10 [1]: 15.6%
